In PMC8199036, “Improved Tumor-Targeting with Peptidomimetic Analogs of Minigastrin ^177Lu-PP-F11N” (Cancers, 2021):
Values joined by “and” are separate entries in the source; they are usually repeats but may differ in a detail not shown here. Identical values can stand only once. Like-named read-outs stand apart in the source and are kept apart here.

Columns and labels:
[1] = parameters: method as in PMID 30608664; settings: 177Lu-labeled; mouse blood, 10 min p.i.; reported previously; cited from earlier work
[2] = parameters: method as in PMID 30608664; settings: 177Lu-labeled; 24 h incubation, human blood plasma; reported previously; cited from earlier work
[3] = biodistribution in mice with CCK2R-positive xenografts; assay type: in vivo, female CD1-nu mice; settings: female, CD1-nu, mouse, in vivo, total radioactivity; for tissue uptake at 1 h: 1 h p.i.; for tissue uptake at 24 h: 24 h p.i.
Protocol: (§1) Procedures for biodistribution studies with ^177Lu-labeled conjugates (10 pmol, 100 µL, 0.1 µM in PBS, 0.5 MBq, 1 µg/kg) in female CD1-nu mice with xenografts of A431-CCK2R cells at 1, 4, and 24 h p.i., as well as blocking experiments at 4 h p.i. with a 6000-fold excess of minigastrin have been reported previously and were followed without modifications. Statistical analysis was performed via GraphPad Prism using two-sided analysis of variance. n = 4 animals per group.

[4] = test system: xenografts of A431-CCK2R cells; assay: as above; assay type: in vivo, female CD1-nu mice
Protocol: as §1

[5] = 10 pmol, read-out: Heart uptake
[6] = 10 pmol, read-out: Intestines uptake
[7] = 10 pmol, read-out: Kidneys uptake
[8] = 10 pmol, read-out: Liver uptake
[9] = 10 pmol, read-out: Pancreas uptake
[10] = 10 pmol, read-out: Spleen uptake
[11] = 10 pmol, read-out: Stomach (CCK2R-positive) uptake
[12] = 10 pmol, read-out: Tumor (CCK2R-positive) uptake

CCCC[C@H](NC(=O)[C@H](Cc1c[nH]c2ccccc12)NC(=O)CNC(=O)[C@H](Cc1ccc(O)cc1)NC(=O)[C@H](C)NC(=O)[C@@H](CCC(=O)O)NC(=O)[C@@H](CCC(=O)O)NC(=O)[C@@H](CCC(=O)O)NC(=O)[C@@H](CCC(=O)O)NC(=O)[C@@H](CCC(=O)O)NC(=O)[C@@H](CCC(=O)O)NC(=O)CN1CCN(CC(=O)O)CCN(CC(=O)O)CCN(CC(=O)O)CC1)C(=O)N[C@@H](CC(=O)O)C(=O)N[C@@H](Cc1ccccc1)C(N)=O [PP-F11N, DOTA-(DGlu)6-Ala-Tyr-Gly-Trp-Nle-Asp-Phe-NH2]
Intact Compound In Vivo (%), 10 min [1]: 43% and 43.1 ± 2.7%
Intact Compound In Vitro (%), 24 h, Blood Plasma [2]: 98.1 ± 0.9%
tissue uptake at 1 h ([3]; 10 pmol, read-out: Bone uptake): 0.88 %ID/g
tissue uptake at 1 h [3, 5]: 0.08 %ID/g
tissue uptake at 1 h [3, 6]: 0.12 %ID/g
tissue uptake at 1 h [3, 7]: 2.75 %ID/g
tissue uptake at 1 h [3, 8]: 0.09 %ID/g
tissue uptake at 1 h ([3]; 10 pmol, read-out: Lung uptake): 0.16 %ID/g
tissue uptake at 1 h ([3]; 10 pmol, read-out: Muscle uptake): 0.13 %ID/g
tissue uptake at 1 h [3, 9]: 0.18 %ID/g
tissue uptake at 1 h [3, 10]: 0.06 %ID/g
tissue uptake at 1 h [3, 11]: 1.02 %ID/g
tissue uptake at 1 h [3, 12]: 6.92 %ID/g
tissue uptake at 4 h ([3]; 10 pmol, 4 h (blocked), excess minigastrin, read-out: Bone uptake): 0.15 %ID/g
tissue uptake at 4 h ([3]; 10 pmol, 4 h (blocked), excess minigastrin, read-out: Muscle uptake): 0.01 %ID/g
tissue uptake at 4 h ([3]; 10 pmol, 4 h p.i., read-out: Blood uptake): 0.01 %ID/g
tissue uptake at 4 h ([3]; 10 pmol, 4 h p.i., read-out: Bone uptake): 0.22 %ID/g
tissue uptake at 4 h ([3]; 10 pmol, 4 h p.i., read-out: Heart uptake): 0.03 %ID/g
tissue uptake at 4 h ([3]; 10 pmol, 4 h p.i., read-out: Intestines uptake): 0.05 %ID/g
tissue uptake at 4 h ([3]; 10 pmol, 4 h p.i., read-out: Kidneys uptake): 2.42 %ID/g
tissue uptake at 4 h ([3]; 10 pmol, 4 h p.i., read-out: Liver uptake): 0.06 %ID/g
tissue uptake at 4 h ([3]; 10 pmol, 4 h p.i., read-out: Lung uptake): 0.03 %ID/g
tissue uptake at 4 h ([3]; 10 pmol, 4 h p.i., read-out: Muscle uptake): 0.02 %ID/g
tissue uptake at 4 h ([3]; 10 pmol, 4 h p.i., read-out: Pancreas uptake): 0.09 %ID/g
tissue uptake at 4 h ([3]; 10 pmol, 4 h p.i., read-out: Spleen uptake): 0.03 %ID/g
tissue uptake at 4 h ([3]; 10 pmol, 4 h p.i., read-out: Stomach (CCK2R-positive) uptake): 1.04 %ID/g
tissue uptake at 4 h ([3]; 10 pmol, 4 h p.i., read-out: Tumor (CCK2R-positive) uptake): 4.07 %ID/g
tissue uptake at 24 h ([3]; 10 pmol, read-out: Bone uptake): 0.1 %ID/g
tissue uptake at 24 h [3, 5]: 0.01 %ID/g
tissue uptake at 24 h [3, 6]: 0.03 %ID/g
tissue uptake at 24 h [3, 7]: 1.72 %ID/g
tissue uptake at 24 h [3, 8]: 0.04 %ID/g
tissue uptake at 24 h ([3]; 10 pmol, read-out: Lung uptake): 0.02 %ID/g
tissue uptake at 24 h [3, 9]: 0.08 %ID/g
tissue uptake at 24 h [3, 10]: 0.02 %ID/g
tissue uptake at 24 h [3, 11]: 0.67 %ID/g
tissue uptake at 24 h [3, 12]: 2.73 %ID/g
tissue uptake at 4 h ([3]; 4 h (blocked), excess minigastrin, read-out: Blood uptake): 0.01 %ID/g
tissue uptake at 4 h ([3]; 4 h (blocked), excess minigastrin, read-out: Heart uptake): 0.02 %ID/g
tissue uptake at 4 h ([3]; 4 h (blocked), excess minigastrin, read-out: Intestines uptake): 0.03 %ID/g
tissue uptake at 4 h ([3]; 4 h (blocked), excess minigastrin, read-out: Kidneys uptake): 2.57 %ID/g
tissue uptake at 4 h ([3]; 4 h (blocked), excess minigastrin, read-out: Liver uptake): 0.07 %ID/g
tissue uptake at 4 h ([3]; 4 h (blocked), excess minigastrin, read-out: Lung uptake): 0.04 %ID/g
tissue uptake at 4 h ([3]; 4 h (blocked), excess minigastrin, read-out: Pancreas uptake): 0.04 %ID/g
tissue uptake at 4 h ([3]; 4 h (blocked), excess minigastrin, read-out: Spleen uptake): 0.04 %ID/g
tissue uptake at 4 h ([3]; 4 h (blocked), excess minigastrin, read-out: Stomach (CCK2R-positive) uptake): 0.12 %ID/g
tissue uptake at 4 h ([3]; 4 h (blocked), excess minigastrin, read-out: Tumor (CCK2R-positive) uptake): 1.3 %ID/g
Tumor (CCK2R-positive) uptake ([4]; 1 h p.i.): 6.92 ± 2.21 % i.A./g
Tumor (CCK2R-positive) uptake ([4]; 4 h p.i.): 4.07 ± 1.40 % i.A./g
Tumor (CCK2R-positive) uptake ([4]; 24 h p.i.): 2.73 ± 0.84 % i.A./g and 2.7 ± 0.8 % i.A./g
